Molecular target: [^68Ga]-DO3A-VS-Cys40-labeled Exendin-4 (UniProt P26349 48-86)
Assay: saturation binding of the radiolabeled probe on INS-1 cells

B1: GLP-1R expressed by INS-1 cells (receptor)
chain: GPRPQGATVSLSETVQKWREYRHQCQRFLTEAPLLATGLFCNRTFDDYACWPDGPPGSFVNVSCPWYLPWASSVLQGHVYRFCTAEGIWLHKDNSSLPWRDLSECEESKQGERNSPEEQLLSLYIIYTVGYALSFSALVIASAILVSFRHLHCTRNYIHLNLFASFILRALSVFIKDAALKWMYSTAAQQHQWDGLLSYQDSLGCRLVFLLMQYCVAANYYWLLVEGVYLYTLLAFSVFSEQRIFKLYLSIGWGVPLLFVIPWGIVKYLYEDEGCWTRNSNMNYWLIIRLPILFAIGVNFLVFIRVICIVIAKLKANLMCKTDIKCRLAKSTLTLIPLLGTHEVIFAFVMDEHARGTLRFVKLFTELSFTSFQGFMVAVLYCFVNNEVQMEFRKSWERWRLERLNIQRDSSMKPLKCPTSSVSSGATVGSSVYAATCQNSCS
notes: whole, on cells; Endogenous receptor on INS-1 cells and INS-1 tumors in mice; also called GLP-R1
Kd: 8.6 nM

— patent US20240269194A1 (CITY OF HOPE, published 2024)
